In article PMC3087007 (The Journal of Cell Biology, 2011):

Molecular target: T1, GST-occludin 383–522 S408A (human, UniProt Q16625 383-522, S408A)
T1 sequence: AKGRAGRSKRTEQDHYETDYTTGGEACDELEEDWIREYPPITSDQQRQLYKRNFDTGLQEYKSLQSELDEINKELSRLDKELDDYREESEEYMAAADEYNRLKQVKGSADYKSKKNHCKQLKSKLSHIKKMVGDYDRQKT
Assay: pull-down

B1: VSV G epitope-tagged human ZO-1 U5-GuK domain construct (residues 591–754) (domain or fragment)
chain: PKTAGGDRADFWRFRGLRSSKRNLRKSREDLSAQPVQTKFPAYERVVLREAGFLRPVTIFGPIADVAREKLAREEPDIYQIAKSEPRDAGTDQRSSGIIRLHTIKQIIDQDKHALLDVTPNAVDRLNYAQWYPIVVFLNPDSKQGVKTMRMRLCPESRKSARKL
  fold binding relative to the S408D mutant: 3.2 fold
